Measured values as given in publication PMC3597684.
Changes are numbered by the printed parent chain.

Legend:
Assay in all cases: EMSA
[1] = target: T1, ParBPput-R194A (ParBPput-G291-R194A) (Pseudomonas putida, UniProt P0A152 1-290, R194A)
T1 sequence: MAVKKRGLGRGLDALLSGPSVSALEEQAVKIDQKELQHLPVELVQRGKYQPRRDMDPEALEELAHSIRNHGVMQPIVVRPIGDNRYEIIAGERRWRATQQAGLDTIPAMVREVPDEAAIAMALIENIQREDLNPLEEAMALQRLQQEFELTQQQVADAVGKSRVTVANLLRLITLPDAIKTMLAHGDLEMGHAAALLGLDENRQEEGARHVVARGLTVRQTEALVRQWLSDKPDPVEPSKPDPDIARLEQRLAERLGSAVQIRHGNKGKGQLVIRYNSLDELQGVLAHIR

SopB (SopB-G324) = target: T2, SopB (SopB-G324) (plasmid F (Escherichia coli), UniProt P62558 1-323)
T2 sequence: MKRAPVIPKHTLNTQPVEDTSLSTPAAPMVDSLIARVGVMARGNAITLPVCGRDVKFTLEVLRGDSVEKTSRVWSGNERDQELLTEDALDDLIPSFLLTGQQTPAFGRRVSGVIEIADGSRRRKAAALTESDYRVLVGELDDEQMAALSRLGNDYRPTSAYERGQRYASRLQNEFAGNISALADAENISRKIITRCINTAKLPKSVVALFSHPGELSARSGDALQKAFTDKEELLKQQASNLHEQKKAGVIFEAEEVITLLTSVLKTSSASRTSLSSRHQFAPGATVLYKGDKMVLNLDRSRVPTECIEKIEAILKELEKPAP

SopB-R219K = target: T3, SopB-R219K (plasmid F (Escherichia coli), UniProt P62558 1-323, R219K)
T3 sequence: T2 sequence with R219K

SopB-R219A = target: T4, SopB-R219A (plasmid F (Escherichia coli), UniProt P62558 1-323, R219A)
T4 sequence: T2 sequence with R219A

B1: parS66 (Pput parS; assignment from listing order) (dsDNA)
DNA 1: ATTAGTCTGTTCCACGTGGAACACTCGTAT
DNA 2: ATACGAGTGTTCCACGTGGAACAGACTAAT
Does B1 bind [1]?
Result: no binding

B2: sopC2 (dsDNA)
DNA 1: ATTAGTCTGGGACCACGGTCCCACTCGTAT
DNA 2: ATACGAGTGGGACCGTGGTCCCAGACTAAT
Which results are given for B2?
binding result (SopB (SopB-G324)): binds; binding signal (SopB-R219K): ~100 fold loss vs wild-type SopB; binding signal (SopB-R219A): > 200 fold loss vs wild-type SopB
